Measured values reported in patent publication US20230002757A1 (ZHEJIANG NANOMAB TECHNOLOGY CENTER, published 2023).
Values belong to the binder of their own block, whether it stands above or below them.

What was measured:
[1] = target: T1, PD-1 protein (human, UniProt Q15116 25-167, limits assumed); experiment: ELISA, PD-1 coated
T1 construct: also called human PD-1
Method: 2 μg/ml of PD-1 protein is coated on 96-well plates overnight for ELISA binding assay. Recombinant VHH-FC proteins are added to the wells and allowed to stand for a period of time, then 1 μg/ml of HRP-conjugated anti-FC antibody is added as detection antibody and the assay reagents are added. The absorbance is read at 450 nm. Binding of nivolumab serves as a positive control and plates coated with BSA are used as the negative control group.

[2] = target: T1, PD-1 protein; experiment: blocking ELISA, PD-1 coated, competitor biotin PD-L1
Method: Each well of 96-well microtiter plates is coated with 2 μg/ml of PD-1 protein in PBS and blocked with 1% BSA. […]
The intensity of the developed color is measured at 450 nm. Wells with no added PD-1 and no added VHH-FC are negative and positive controls, respectively.

T1 sequence (Q15116 25-167 limits assumed): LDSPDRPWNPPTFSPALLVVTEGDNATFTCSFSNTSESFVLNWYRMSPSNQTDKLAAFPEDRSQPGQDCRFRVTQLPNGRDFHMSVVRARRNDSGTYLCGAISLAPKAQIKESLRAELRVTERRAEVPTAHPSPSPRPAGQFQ

B1: 504#SS29 (Fc fusion, not shown: a dimerising Fc or GST; small tags and cut ends)
VHH: QVQLVESGGGLVQAGGSLRLSCAASGRTFSGYTMGWFRRAPGKERELIANILWNSARRYYADSVKGRFTISRDNAMNTVDLQMNSLKPEDTAVYYCAVLVDSTYRFSNQGTQVTVSS
notes: VHH-FC construct from HEK293 cells
OD450 at 0.002 µg/mL [1]: 0.04 OD450 | OD450 at 0.02 µg/mL [1]: 0.04 OD450 | OD450 at 0.2 µg/mL [1]: 0.06 OD450 | OD450 at 2 µg/mL [1]: 0.35 OD450 | OD450 of PD-L1 bound, antibody at 0.15 µg/mL [2]: 3.35 OD450 | OD450 of PD-L1 bound, antibody at 0.61 µg/mL [2]: 3.36 OD450 | OD450 of PD-L1 bound, antibody at 2.42 µg/mL [2]: 3.39 OD450 | OD450 of PD-L1 bound, antibody at 9.75 µg/mL [2]: 3.31 OD450

B2: 504#SS9 (Fc fusion)
VHH: EVQLQESGGGLVQAGGSLRLSCAASGRSFSGYAMAWFRQAPGKEREFVAAVNWNGGSTYYADSVKGRFTISRDNAKDTVYLQMNSLKPEDTAVYYCNARPTFGAYYSDYKSGVDYWGQGTQVTVSS
notes: VHH-FC construct from HEK293 cells; not shown: The (G4S)3 linker leading to it is left out with it
OD450 at 0.002 µg/mL [1]: 0.03 OD450 | OD450 at 0.02 µg/mL [1]: 0.03 OD450 | OD450 at 0.2 µg/mL [1]: 0.03 OD450 | OD450 at 2 µg/mL [1]: 0.04 OD450 | OD450 of PD-L1 bound, antibody at 0.15 µg/mL [2]: 3.42 OD450 | OD450 of PD-L1 bound, antibody at 0.61 µg/mL [2]: 3.36 OD450 | OD450 of PD-L1 bound, antibody at 2.42 µg/mL [2]: 3.46 OD450 | OD450 of PD-L1 bound, antibody at 9.75 µg/mL [2]: 3.32 OD450

B3: 504#SS10 (Fc fusion, not shown: a dimerising Fc or GST; small tags and cut ends)
VHH: EVQLVESGGGLVQPGASLRLSCTASGSIFSIYAMGWYRQAPGKQRELVAYITSGGSTTYADSVKGRFTISRDNAKNTVYLQMNSLKPEDTAVYYCNRGNYYRDYKPEFWGQGTQVTVSS
notes: as for B1
OD450 at 0.002 µg/mL [1]: 0.03 OD450 | OD450 at 0.02 µg/mL [1]: 0.03 OD450 | OD450 at 0.2 µg/mL [1]: 0.03 OD450 | OD450 at 2 µg/mL [1]: 0.04 OD450 | OD450 of PD-L1 bound, antibody at 0.15 µg/mL [2]: 3.27 OD450 | OD450 of PD-L1 bound, antibody at 0.61 µg/mL [2]: 3.24 OD450 | OD450 of PD-L1 bound, antibody at 2.42 µg/mL [2]: 3.28 OD450 | OD450 of PD-L1 bound, antibody at 9.75 µg/mL [2]: 3.32 OD450

B4: 504#SS14 (Fc fusion, not shown: a dimerising Fc or GST; small tags and cut ends)
VHH: QVQLVESGGGLVQPGGSLRLSCVASGFTFSSYWMYWVRQAPGKGLEWVSAIDTTGGSTAYTHSVKGRFTISRDNARNTLYLQMNNLKSEDTAVYYCANSTYFNDDPEYDRWGQGTQVTVSS
notes: as for B1
OD450 at 0.002 µg/mL [1]: 0.04 OD450 | OD450 at 0.02 µg/mL [1]: 0.03 OD450 | OD450 at 0.2 µg/mL [1]: 0.03 OD450 | OD450 at 2 µg/mL [1]: 0.04 OD450 | OD450 of PD-L1 bound, antibody at 0.15 µg/mL [2]: 3.22 OD450 | OD450 of PD-L1 bound, antibody at 0.61 µg/mL [2]: 3.25 OD450 | OD450 of PD-L1 bound, antibody at 2.42 µg/mL [2]: 3.27 OD450 | OD450 of PD-L1 bound, antibody at 9.75 µg/mL [2]: 3.36 OD450

B5: 504#SS30 (Fc fusion, not shown: a dimerising Fc or GST; small tags and cut ends)
VHH: EVQLVETGGGLVQAGGSLRLACEVSGRTFSSYAMGWFRQAPGREREFVASIRVSGGITDYADSVKGRFTISRDNAKDTVYLQMINLKPEDTAVYYCNADISRYRFSRGDYWGKGTLVTVSS
notes: as for B1
OD450 at 0.002 µg/mL [1]: 0.04 OD450 | OD450 at 0.02 µg/mL [1]: 0.03 OD450 | OD450 at 0.2 µg/mL [1]: 0.03 OD450 | OD450 at 2 µg/mL [1]: 0.04 OD450 | OD450 of PD-L1 bound, antibody at 0.15 µg/mL [2]: 3.33 OD450 | OD450 of PD-L1 bound, antibody at 0.61 µg/mL [2]: 3.26 OD450 | OD450 of PD-L1 bound, antibody at 2.42 µg/mL [2]: 3.29 OD450 | OD450 of PD-L1 bound, antibody at 9.75 µg/mL [2]: 3.28 OD450

B7: 504#SS23 (Fc fusion, not shown: a dimerising Fc or GST; small tags and cut ends)
VHH: QVQLVESGGGLVQPGGSLRLSCAASGFTFSSYVMSWVRQAPGKGLEWVSAINSGGSSSSYPESVKDRFTVSRDNAKNTLYLQMNSLKPEDTAVYFCAAKNVPGFYYSDYANHEYDYWGQGTQVTVSS
notes: as for B1
OD450 at 0.002 µg/mL [1]: 0.19 OD450 | OD450 at 0.02 µg/mL [1]: 1.22 OD450 | OD450 at 0.2 µg/mL [1]: 2.91 OD450 | OD450 at 2 µg/mL [1]: 3 OD450 | OD450 of PD-L1 bound, antibody at 0.15 µg/mL [2]: 3.47 OD450 | OD450 of PD-L1 bound, antibody at 0.61 µg/mL [2]: 3.31 OD450 | OD450 of PD-L1 bound, antibody at 2.42 µg/mL [2]: 3.29 OD450 | OD450 of PD-L1 bound, antibody at 9.75 µg/mL [2]: 3.28 OD450

Results, then the binder that gave them:

OD450 at 0.002 µg/mL [1]: 0.03 OD450 | OD450 at 0.02 µg/mL [1]: 0.03 OD450 | OD450 at 0.2 µg/mL [1]: 0.03 OD450 | OD450 at 2 µg/mL [1]: 0.04 OD450 | OD450 of PD-L1 bound, antibody at 0.15 µg/mL [2]: 3.32 OD450 | OD450 of PD-L1 bound, antibody at 0.61 µg/mL [2]: 3.3 OD450 | OD450 of PD-L1 bound, antibody at 2.42 µg/mL [2]: 3.36 OD450 | OD450 of PD-L1 bound, antibody at 9.75 µg/mL [2]: 3.17 OD450
B6: 504#SS25 (Fc fusion, not shown: a dimerising Fc or GST; small tags and cut ends)
VHH: QVQLVETGGGLVQAGGSLRLSCAASGDTIFISSMAWYRQAPGKERELVASIDSDDIIYYAATVKGRFTISRDNDKPTMYLQMDTLQPEDTAVYYCRVESQDYYFDYDRDSWGQGTQVTVSS
notes: as for B1

OD450 at 0.002 µg/mL [1]: 0.03 OD450 | OD450 at 0.02 µg/mL [1]: 0.04 OD450 | OD450 at 0.2 µg/mL [1]: 0.03 OD450 | OD450 at 2 µg/mL [1]: 0.05 OD450 | OD450 of PD-L1 bound, antibody at 0.15 µg/mL [2]: 3.48 OD450 | OD450 of PD-L1 bound, antibody at 0.61 µg/mL [2]: 3.35 OD450 | OD450 of PD-L1 bound, antibody at 2.42 µg/mL [2]: 3.22 OD450 | OD450 of PD-L1 bound, antibody at 9.75 µg/mL [2]: 3.26 OD450
B8: 504#SS16 (Fc fusion, not shown: a dimerising Fc or GST; small tags and cut ends)
VHH: EVQVVESGGGLVQAGGSLRLSCAVSGRTFSSYVMGWFRQAPGKERDFVAAISRSGGRTWYADSVKGRFTISFDNAKNTVYLQMNSLKPEDTASYYCNTDYTFAKLTAPDRRNDDWGQGTQVTVSS
notes: as for B1

OD450 at 0.002 µg/mL [1]: 0.03 OD450 | OD450 at 0.02 µg/mL [1]: 0.05 OD450 | OD450 at 0.2 µg/mL [1]: 0.24 OD450 | OD450 at 2 µg/mL [1]: 1.07 OD450 | OD450 of PD-L1 bound, antibody at 0.15 µg/mL [2]: 3.32 OD450 | OD450 of PD-L1 bound, antibody at 0.61 µg/mL [2]: 3.35 OD450 | OD450 of PD-L1 bound, antibody at 2.42 µg/mL [2]: 3.31 OD450 | OD450 of PD-L1 bound, antibody at 9.75 µg/mL [2]: 3.26 OD450
B9: 504#SS7 (Fc fusion)
VHH: QVQLVESGGGLVQAGGSLTLSCAASGRTFNSYAMGWFRQAPGKEREFVAAISQNGGSQGYAEAVKDRFTISRDNTNKVVALQMNSLKPEDTAAYYCAADGDASDRSYAPPRDYKYEYWGQGTQVTVSS
notes: as for B2
